{"source": "patent US20070265201A1", "about": "“INHIBITORS OF IN[…] TRA[…] FROM HCMV PROTEIN IE2” (priority 2005, published 2007)", "target": "Spi-1 transcription factor, expressed in cells", "test": "cell-based or functional assay", "data": [{"substance": "IE2 291-364 expressed in cells from pCDNA 3.1/V5-His IE2 291-364 (peptide)", "values": [{"measurement": "inhibition of IL-1β promoter luciferase reporter in LPS-treated RAW 264.7 cells", "result": 50, "unit": "%"}, {"measurement": "maximum inhibition of the 3.8 kbp complete IL1B regulatory region luciferase reporter in LPS-treated RAW264.7 cells", "result": "50 to 75", "unit": "%"}]}]}
